Results published in paper PMC5511190.

Target: GST-LRRK2 WD40 G2385R (human) (UniProt Q5S007)
Assay: affinity purification with mass spectrometry; 5 µg GST fusion protein on glutathione-Sepharose incubated with adult mouse brain lysate or crude SV fraction (LP2) (1 mg protein) 2 h at 4 °C; washes 150 mM NaCl, 2 mM EDTA, 50 mM Tris-HCl, 0.2% Triton, pH 7.4; LC-MS/MS with label-free quantification, 4 samples per condition (GST-control, GST-WD40, GST-WD40-G2385R)

Chain of GST-LRRK2 WD40 G2385R (human) (Q5S007 whole entry G2385R, the tested form may be a part): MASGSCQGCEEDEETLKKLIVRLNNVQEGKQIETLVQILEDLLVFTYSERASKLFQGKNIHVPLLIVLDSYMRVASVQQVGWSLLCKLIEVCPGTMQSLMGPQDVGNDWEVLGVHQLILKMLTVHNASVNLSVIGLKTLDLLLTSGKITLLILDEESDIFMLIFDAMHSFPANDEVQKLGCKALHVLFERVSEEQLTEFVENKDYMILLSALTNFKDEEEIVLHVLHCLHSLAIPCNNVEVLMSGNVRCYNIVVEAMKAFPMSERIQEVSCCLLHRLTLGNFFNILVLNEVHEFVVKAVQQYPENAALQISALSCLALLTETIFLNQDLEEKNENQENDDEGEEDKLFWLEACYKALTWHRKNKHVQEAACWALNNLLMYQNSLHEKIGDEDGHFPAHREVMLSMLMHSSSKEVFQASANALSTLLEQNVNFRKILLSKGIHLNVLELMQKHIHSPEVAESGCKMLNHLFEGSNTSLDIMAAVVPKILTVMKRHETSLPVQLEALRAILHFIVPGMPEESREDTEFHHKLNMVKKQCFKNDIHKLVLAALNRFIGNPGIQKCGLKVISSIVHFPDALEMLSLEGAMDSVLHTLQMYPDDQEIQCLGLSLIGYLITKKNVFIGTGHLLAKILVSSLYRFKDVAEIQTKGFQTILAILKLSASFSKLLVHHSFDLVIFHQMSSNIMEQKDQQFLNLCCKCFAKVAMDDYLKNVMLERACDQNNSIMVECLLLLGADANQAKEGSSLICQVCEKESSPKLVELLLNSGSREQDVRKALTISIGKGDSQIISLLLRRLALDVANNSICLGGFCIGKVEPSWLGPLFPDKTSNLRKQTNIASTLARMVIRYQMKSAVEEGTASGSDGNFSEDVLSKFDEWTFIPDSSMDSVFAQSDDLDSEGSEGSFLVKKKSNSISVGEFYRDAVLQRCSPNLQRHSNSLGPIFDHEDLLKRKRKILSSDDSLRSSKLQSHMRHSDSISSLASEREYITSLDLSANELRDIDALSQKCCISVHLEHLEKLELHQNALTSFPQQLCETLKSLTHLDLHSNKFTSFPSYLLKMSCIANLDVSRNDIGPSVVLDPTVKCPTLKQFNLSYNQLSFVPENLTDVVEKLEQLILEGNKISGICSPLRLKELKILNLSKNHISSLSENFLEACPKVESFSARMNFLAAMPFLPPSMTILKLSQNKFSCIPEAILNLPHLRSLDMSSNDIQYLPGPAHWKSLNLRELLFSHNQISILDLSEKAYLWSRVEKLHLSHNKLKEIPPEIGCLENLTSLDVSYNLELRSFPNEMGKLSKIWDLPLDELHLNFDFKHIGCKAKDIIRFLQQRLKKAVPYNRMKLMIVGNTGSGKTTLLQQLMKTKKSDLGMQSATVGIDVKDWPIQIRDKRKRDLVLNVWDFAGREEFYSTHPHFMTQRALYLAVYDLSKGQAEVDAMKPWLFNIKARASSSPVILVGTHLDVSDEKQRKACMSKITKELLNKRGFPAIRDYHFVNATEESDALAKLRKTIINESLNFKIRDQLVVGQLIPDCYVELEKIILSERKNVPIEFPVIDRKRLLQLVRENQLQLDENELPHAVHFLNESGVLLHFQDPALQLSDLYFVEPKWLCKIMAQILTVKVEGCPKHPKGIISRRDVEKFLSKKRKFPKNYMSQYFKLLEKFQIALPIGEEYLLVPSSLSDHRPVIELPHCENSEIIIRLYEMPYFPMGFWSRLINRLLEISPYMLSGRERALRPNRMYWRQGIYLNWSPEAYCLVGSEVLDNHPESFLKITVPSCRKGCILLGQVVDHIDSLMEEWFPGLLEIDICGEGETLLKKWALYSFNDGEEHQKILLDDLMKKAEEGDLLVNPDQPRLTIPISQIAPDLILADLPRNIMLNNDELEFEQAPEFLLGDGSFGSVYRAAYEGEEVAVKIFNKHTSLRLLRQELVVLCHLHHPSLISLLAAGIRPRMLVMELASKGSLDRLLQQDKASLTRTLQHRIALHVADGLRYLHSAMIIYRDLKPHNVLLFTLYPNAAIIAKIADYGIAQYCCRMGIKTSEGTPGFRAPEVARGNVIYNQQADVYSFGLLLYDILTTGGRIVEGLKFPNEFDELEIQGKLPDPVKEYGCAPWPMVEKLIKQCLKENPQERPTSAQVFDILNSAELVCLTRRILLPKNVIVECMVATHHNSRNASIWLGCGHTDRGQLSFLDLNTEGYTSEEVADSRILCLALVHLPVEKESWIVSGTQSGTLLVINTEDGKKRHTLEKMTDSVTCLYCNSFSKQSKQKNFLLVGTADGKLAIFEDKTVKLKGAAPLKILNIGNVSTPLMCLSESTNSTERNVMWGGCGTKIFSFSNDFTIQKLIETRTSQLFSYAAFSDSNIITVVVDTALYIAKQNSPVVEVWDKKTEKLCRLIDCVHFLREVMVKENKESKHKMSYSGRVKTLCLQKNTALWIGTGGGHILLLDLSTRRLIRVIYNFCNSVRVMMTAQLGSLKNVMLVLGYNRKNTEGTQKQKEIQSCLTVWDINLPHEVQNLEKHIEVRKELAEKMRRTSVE
Chain of Dihydropyrimidinase-related protein 1 (P97427 whole entry): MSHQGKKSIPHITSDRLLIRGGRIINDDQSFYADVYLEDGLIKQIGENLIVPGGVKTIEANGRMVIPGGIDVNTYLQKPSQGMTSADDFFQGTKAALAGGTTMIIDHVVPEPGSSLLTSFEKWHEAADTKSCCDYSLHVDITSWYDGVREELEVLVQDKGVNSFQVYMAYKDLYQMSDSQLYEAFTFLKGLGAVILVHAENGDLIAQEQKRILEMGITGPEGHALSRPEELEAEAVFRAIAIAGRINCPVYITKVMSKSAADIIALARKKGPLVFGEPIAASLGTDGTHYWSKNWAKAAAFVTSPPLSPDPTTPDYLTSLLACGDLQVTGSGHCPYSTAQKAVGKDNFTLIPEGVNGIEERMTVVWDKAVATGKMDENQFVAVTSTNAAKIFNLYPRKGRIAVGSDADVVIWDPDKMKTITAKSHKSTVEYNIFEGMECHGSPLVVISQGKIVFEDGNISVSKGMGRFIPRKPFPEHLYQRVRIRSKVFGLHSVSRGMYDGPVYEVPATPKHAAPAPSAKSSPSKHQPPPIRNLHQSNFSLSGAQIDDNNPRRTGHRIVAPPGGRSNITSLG
Chain of AP-2 complex subunit alpha-1 (P17426 whole entry, one chain of several): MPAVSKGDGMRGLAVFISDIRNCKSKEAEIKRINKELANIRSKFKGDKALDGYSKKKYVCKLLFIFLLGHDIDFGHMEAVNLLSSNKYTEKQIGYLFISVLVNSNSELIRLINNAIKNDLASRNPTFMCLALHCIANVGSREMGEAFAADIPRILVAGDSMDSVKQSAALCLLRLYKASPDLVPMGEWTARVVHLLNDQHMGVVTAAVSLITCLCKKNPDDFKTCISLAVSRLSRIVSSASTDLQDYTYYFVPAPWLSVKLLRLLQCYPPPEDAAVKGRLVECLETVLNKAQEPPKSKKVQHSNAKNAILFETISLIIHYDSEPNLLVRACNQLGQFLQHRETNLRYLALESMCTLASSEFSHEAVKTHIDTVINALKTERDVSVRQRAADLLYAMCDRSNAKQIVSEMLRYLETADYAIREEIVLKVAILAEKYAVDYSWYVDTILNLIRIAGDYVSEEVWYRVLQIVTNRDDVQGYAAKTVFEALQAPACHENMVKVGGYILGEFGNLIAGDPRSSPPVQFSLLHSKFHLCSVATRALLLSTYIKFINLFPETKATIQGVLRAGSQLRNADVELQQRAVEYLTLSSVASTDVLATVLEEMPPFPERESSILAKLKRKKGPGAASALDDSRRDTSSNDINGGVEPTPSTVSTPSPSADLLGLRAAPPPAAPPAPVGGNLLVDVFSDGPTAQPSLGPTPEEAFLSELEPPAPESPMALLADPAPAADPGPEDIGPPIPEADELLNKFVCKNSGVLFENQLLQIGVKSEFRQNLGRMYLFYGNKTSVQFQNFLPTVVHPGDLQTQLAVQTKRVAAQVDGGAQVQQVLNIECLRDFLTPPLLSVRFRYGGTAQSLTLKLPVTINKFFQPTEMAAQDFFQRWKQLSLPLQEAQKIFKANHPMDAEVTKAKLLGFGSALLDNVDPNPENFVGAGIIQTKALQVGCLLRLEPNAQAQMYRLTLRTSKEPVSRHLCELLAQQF
Chain of Ras-related protein Rab-1A (P62821 whole entry): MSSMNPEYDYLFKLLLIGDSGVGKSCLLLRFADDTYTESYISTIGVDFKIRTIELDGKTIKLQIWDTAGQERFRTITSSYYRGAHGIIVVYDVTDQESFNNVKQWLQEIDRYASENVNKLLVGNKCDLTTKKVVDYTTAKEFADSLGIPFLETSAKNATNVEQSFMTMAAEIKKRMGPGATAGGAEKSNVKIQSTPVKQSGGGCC
Chain of Tubulin alpha-4A chain (P68368 whole entry): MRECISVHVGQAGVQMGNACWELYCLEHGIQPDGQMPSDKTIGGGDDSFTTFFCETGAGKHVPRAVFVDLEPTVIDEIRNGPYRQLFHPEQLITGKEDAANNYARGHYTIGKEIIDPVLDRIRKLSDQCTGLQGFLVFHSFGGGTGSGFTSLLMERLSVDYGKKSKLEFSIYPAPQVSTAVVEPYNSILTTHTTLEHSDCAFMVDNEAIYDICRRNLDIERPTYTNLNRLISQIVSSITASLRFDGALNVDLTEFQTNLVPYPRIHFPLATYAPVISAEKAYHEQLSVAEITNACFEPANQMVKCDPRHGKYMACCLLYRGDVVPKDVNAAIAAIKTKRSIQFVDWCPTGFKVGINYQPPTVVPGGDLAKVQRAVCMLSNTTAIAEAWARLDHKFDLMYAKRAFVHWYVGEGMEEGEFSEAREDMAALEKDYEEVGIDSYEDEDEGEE
Chain of 14-3-3 protein epsilon (P62259 whole entry): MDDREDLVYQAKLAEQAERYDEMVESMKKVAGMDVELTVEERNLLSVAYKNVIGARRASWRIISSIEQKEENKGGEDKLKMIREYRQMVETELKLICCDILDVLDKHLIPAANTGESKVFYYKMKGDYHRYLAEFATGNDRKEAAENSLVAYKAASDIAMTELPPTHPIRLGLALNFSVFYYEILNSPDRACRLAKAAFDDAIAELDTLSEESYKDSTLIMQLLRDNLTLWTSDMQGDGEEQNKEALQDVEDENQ

Substance	G2385R/WT (ratio of abundance in G2385R versus wild-type bait)
F-actin-capping protein subunit alpha-2 (from UniProt P47754 1-286) (natural protein)	0.5
Tubulin beta-4A chain (from UniProt Q9D6F9 1-444) (natural protein)	0.39
Dihydropyrimidinase-related protein 1 (from UniProt P97427 1-572) (natural protein)	0.42
Tubulin beta-4B chain (from UniProt P68372 1-445) (natural protein)	0.49
Coronin-1A (from UniProt O89053 1-461) (natural protein)	0.37
AP-2 complex subunit alpha-1 (from UniProt P17426 1-977) (natural protein)	0.44
Ras-related protein Rab-1A (from UniProt P62821 1-205) (natural protein)	0.62
Tubulin alpha-4A chain (from UniProt P68368 1-448) (natural protein)	0.53
Tubulin alpha-1A chain (from UniProt P68369 1-451) (natural protein)	0.49
Actin-related protein 2/3 complex subunit 1 A (from UniProt Q9R0Q6 1-370) (natural protein)	0.26
Synapsin-2 (from UniProt Q64332 1-586) (natural protein)	0.53
14-3-3 protein epsilon (from UniProt P62259 1-255) (natural protein)	0.37
Dihydropyrimidinase-related protein 4 (from UniProt O35098 1-572) (natural protein)	0.46
